Reference: patent US20240392003A1 (NUMAB THERAPEUTICS, published 2024)
Read-outs that look alike come from different tables or passages of the source. One block for each binder: values may come before it.

Key:
[1] = target: T1, recombinant human ROR1 protein (Fc-Tag, Acro Biosystems RO1-H5250) (human, UniProt Q01973 30-406); test: SPR; hROR1-Fc immobilized;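 further: biacore T200 SPR with ROR1 covalently coupled to a CM5 chip, analyte titration series, apparent rate and equilibrium constants fitted with a 1:1 Langmuir model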
T1 construct: Bought; also called hROR1; recombinant human ROR1 ECD; not shown: Fc tag

[2] = target: T2, human serum albumin (Sigma-Aldrich A3782) (human, UniProt P02768 25-609); test: SPR; hSA immobilized, pH 5.5
T2 construct: also called hSA; HSA

[3] = target: T3, recombinant human CD3 epsilon extra-cellular domain protein (His-Tag, SinoBiological) (human, UniProt P07766 23-126); test: SPR; hCD3ε immobilized, two-state fit
T3 construct: extracellular domain; Bought; also called hCD3ε; human CD3ε; not shown: His tag

[4] = target: T4, human ROR1 expressed on cells (human, UniProt Q01973 30-937); test: flow cytometry, MDA-MB-231 cells, 1 mg/ml hSA
T4 construct: whole, on cells; One molecule for cell-surface ROR1 on all cell lines; the cell line is named under assay; also called hROR1; plasma membrane human ROR1

[5] = target: T3, recombinant human CD3 epsilon …; test: SPR; hCD3ε immobilized, two-state fit (ka1)
[6] = target: T3, recombinant human CD3 epsilon …; test: SPR; hCD3ε immobilized, two-state fit (kd1)
[7] = target: T4, human ROR1 expressed on cells; test: flow cytometry, MDA-MB-231 cells, 1 mg/ml hSA; remark: listed apart in the source
[8] = target: T4, human ROR1 expressed on cells; test: cell-based or functional assay
[9] = target: T4, human ROR1 expressed on cells; test: cell-based or functional assay; remark: listed apart in the source
[10] = target: T4, human ROR1 expressed on cells; test: cell-based or functional assay; remark: listed apart in the source
[11] = target: T1, recombinant human ROR1 protein (Fc-Tag, …); test: SPR; hROR1-Fc immobilized (Avidity)
[12] = target: T3, recombinant human CD3 epsilon …; test: SPR; hCD3ε immobilized, two-state fit; remark: listed apart in the source
[13] = target: T3, recombinant human CD3 epsilon …; test: SPR; hCD3ε immobilized, two-state fit (Ka1)
[14] = target: T3, recombinant human CD3 epsilon …; test: SPR; hCD3ε immobilized, two-state fit (kd1); remark: listed apart in the source
[15] = target: T4, human ROR1 expressed on cells; test: flow cytometry, MDA-MB-231 cells, 1 mg/ml hSA; remark: listed apart in the source
[16] = target: T5, human ROR1 (Peprotech 160-054) (human, UniProt Q01973 30-406); test: SPR; MATCH4 captured, hROR1 analyte (Affinity)
T5 construct: Bought, used as analyte; also called hROR1; recombinant human ROR1 protein

[17] = target: T4, human ROR1 expressed on cells; test: flow cytometry, JIMT-1 cells (ROR1-positive)
[18] = target: T2, human serum albumin (Sigma-Aldrich …); test: SPR; hSA immobilized, pH 5.5; remark: listed apart in the source

Kd [1]: 0.33 nM
koff [1]: 0.00045 s⁻¹
kon [1]: 1.4e+06 M⁻¹ s⁻¹
Kd [2]: 0.062 nM
koff [2]: 6.7e-05 s⁻¹
kon [2]: 1.1e+06 M⁻¹ s⁻¹
Kd [3]: 1.5 nM
ka2 [3]: 0.00069 s⁻¹
kd2 [3]: 0.0011 s⁻¹
fold lower EC50 binding than parental scFv PRO2062 [4]: ~5 fold
kon [5]: 1.1e+06 M⁻¹ s⁻¹
koff [6]: 0.0027 s⁻¹
EC50 [7]: 1.33 nM
Rel. maximum binding (MFIscMATCH3/MFIPRO2213) [7]: 1.87
B1: PRO2286 (bispecific antibody)
chain: DVVMTQSPSSLSASVGDRVTITCQASQIISSRSAWYQQKPGQPPKLLIYQASKLASGVPSRFSGSGSGTDFTLTISSLQPEDFATYYCQCTYIDSNFGAFGCGTKLTVLGGGGGSEVQLVESGGGLVQPGGSLRLSCAASGFSLSSYDMSWVRQAPGKGLAWIGASYASGPTYYASWAKGRFTISRDNSKNTVYLQMNSLRAEDTATYFCARGGWTGTSHSNIWGQGTLVTVSSGGGGSGGGGSGGGGSGGGGSDIQMTQSPSSLSASVGDRVTITCQSSQSVFSNNYLAWFQQKPGQSPKRLIYSASTLASGVPSRFSGSGSGTDFTLTISSLQPEDFATYYCLGSYACSSADCYVFGTGTKVTVLGGGGGSEVQLVESGGGLVQPGGSLRLSCAASGFSFSSSYWICWVRQAPGKCLEWVGCVFTGDGTTYYASWAKGRFTISRDNSKNTVYLQMNSLRAEDTATYFCARPVSVYYYGMDLWGQGTLVTVSSGGGGSGGGGSAQQLTQSPSSLSASVGDRVTITCQASQNVWNNNYLSWFQQKPGKPPKLLIVTASTLASGVSSRFSGSGSGTDFTLTISSLQPEDFATYYCAGGFSGEIRAFGTGTKVTVLGGGGGSGGGGSGGGGSGGGGSQSQLVESGGGLVQPGGSLRLSCAVSGLSLSRNAMSWVRQAPGKGLEWIGIILTSGSTYYASWAKGRFTISKDNSKNTVYLQMNSLRAEDTAVYFCVRGIASSSLKSFWGQGTLVTVSS
notes: trispecific anti-ROR1 x hSA x CD3 scMATCH3, single chain; also called 23-13-A01-sc02 diS scDb-o/28-21-D09-sc04 scDb-i/55-39-G02-sc02-scFv

Avg. % max. lysis (JIMT-1) [8]: 38.6%
Avg. % max. lysis (MDA-MB-231) [8]: 52.2%
Avg. % max. lysis (SKOV3) [8]: 51.8%
Avg. EC50 (nM) CD8 T cell act. (MDA-MB-231) [8]: 0.013 nM
Avg. EC50 (nM) CD8 T cell act. (SKOV3) [8]: 0.034 nM
Avg. % max. CD8 T cell act. (JIMT-1) [9]: 22.5%
Avg. % max. CD8 T cell act. (MDA-MB-231) [9]: 68.8%
Avg. % max. CD8 T cell act. (SKOV3) [9]: 63.7%
Avg. EC50 (nM) CD8 T cell act. (JIMT-1) [9]: 0.09 nM
Avg. EC50 (nM) CD8 T cell act. (MDA-MB-231) [9]: 0.013 nM
Avg. EC50 (nM) CD8 T cell act. (SKOV3) [9]: 0.034 nM
Avg. % max. CD4 T cell act. (JIMT-1) [10]: 35.3%
Avg. % max. CD4 T cell act. (MDA-MB-231) [10]: 79.3%
Avg. % max. CD4 T cell act. (SKOV3) [10]: 78.3%
Avg. EC50 (nM) CD4 T cell act. (JIMT-1) [10]: 0.11 nM
Avg. EC50 (nM) CD4 T cell act. (MDA-MB-231) [10]: 0.007 nM
Avg. EC50 (nM) CD4 T cell act. (SKOV3) [10]: 0.02 nM
Kd [11]: 0.136 nM
koff [11]: 6.15e-05 s⁻¹
kon [11]: 453000 M⁻¹ s⁻¹
Ka2 [12]: 0.0055 s⁻¹
Kd [12]: 5.7 nM
Kd2 [12]: 0.0043 s⁻¹
kon [13]: 450000 M⁻¹ s⁻¹
koff [14]: 0.0058 s⁻¹
EC50 [15]: 1.23 nM
Rel. maximum binding (MFIMATCH4/MFIPRO2213) [15]: 2.76
rel. EC50 (EC50, PRO2213/EC50, MATCH4) [15]: 0.56
Kd [16]: 2.9 nM
koff [16]: 0.00017 s⁻¹
kon [16]: 59000 M⁻¹ s⁻¹
EC50 (read off the curve) [17]: 1 to 2 nM
B2: PRO2590 (bispecific antibody)
chain 1: DVQMTQSPSSLSASVGDRVTITCRASENIYSGLAWYQQKPGKPPKLLIYRASTLASGVSSRFSGSGSGTDFTLTISSLQPEDFATYYCQGGYYSSSSTYIAFGCGTKVTVLGGGGGSGGGGSGGGGSGGGGSQSQVVESGGGLVQPGGSLRLSCAVSGFDLSSYAVSWVRQAPGKCLEWIGIIYPRANTYYASWAKGRFTISKDNSKNTVYLQMNSLRAEDTAVYFCARDRYDSGAYLYTTYFNLWGQGTLVTVSSGGGGSGGGGSAFELTQSPSSLSASVGDRVTITCQASESINSRLAWYQQKPGQPPKLLIYDASDLTSGVPSRFSGSGSGTDFTLTISSLQPEDFATYYCQGYGGSSTTTFGCGTKLTVLGGGSGGSDIQMTQSPSSLSASVGDRVTITCQSSQSVFSNNYLAWFQQKPGQSPKRLIYSASTLASGVPSRFSGSGSGTDFTLTISSLQPEDFATYYCLGSYACSSADCYVFGTGTKVTVLG
chain 2: DVQMTQSPSSLSASVGDRVTITCRASENIYSGLAWYQQKPGKPPKLLIYRASTLASGVSSRFSGSGSGTDFTLTISSLQPEDFATYYCQGGYYSSSSTYIAFGCGTKVTVLGGGGGSGGGGSGGGGSGGGGSQSQVVESGGGLVQPGGSLRLSCAVSGFDLSSYAVSWVRQAPGKCLEWIGIIYPRANTYYASWAKGRFTISKDNSKNTVYLQMNSLRAEDTAVYFCARDRYDSGAYLYTTYFNLWGQGTLVTVSSGGGGSGGGGSEVQLVESGGGLVQPGGSLRLSCAASGFSLSSYDMSWVRQAPGKGLAWIGASYASGPTYYASWAKGRFTISRDNSKNTVYLQMNSLRAEDTATYFCARGGWTGTSHSNIWGQGTLVTVSSGGGSGGGSGGGSGEVQLVESGGGLVQPGGSLRLSCAASGFSLSSYAMNWVRQAPGKCLEWIGHINAGDIAYYATWAKGRFTISRDNSKNTVYLQMNSLRAEDTAVYFCARGAGGFSTGPFKLWGQGTLVTVSS
notes: heterodimeric MATCH4, bivalent for ROR1, monovalent for CD3 and hSA; also called MATCH4 with 55-38-D07-sc06 / 19-04-A10-sc06 / 28-21-D09-sc04 / 55-38-D07-sc06
Avg. EC50 (nM) Cytotoxicity (JIMT-1) [8]: 0.13 nM
Avg. EC50 (nM) Cytotoxicity (MDA-MB-231) [8]: 0.016 nM
Avg. EC50 (nM) Cytotoxicity (SKOV3) [8]: 0.049 nM

Kd [18]: 3.5 nM
koff [18]: 0.0013 s⁻¹
kon [18]: 370000 M⁻¹ s⁻¹
Kd [11]: 0.11 nM
koff [11]: 8.1e-05 s⁻¹
kon [11]: 760000 M⁻¹ s⁻¹
Ka2 [12]: 0.0054 s⁻¹
Kd [12]: 2.7 nM
Kd2 [12]: 0.0047 s⁻¹
kon [13]: 820000 M⁻¹ s⁻¹
koff [14]: 0.0048 s⁻¹
EC50 [15]: 0.85 nM
Rel. maximum binding (MFIMATCH4/MFIPRO2213) [15]: 2.68
rel. EC50 (EC50, PRO2213/EC50, MATCH4) [15]: 0.39
Kd [16]: 2.87 nM
koff [16]: 0.000132 s⁻¹
kon [16]: 46000 M⁻¹ s⁻¹
B3: PRO2670 (bispecific antibody)
chain 1: DVQMTQSPSSLSASVGDRVTITCRASENIYSGLAWYQQKPGKPPKLLIYRASTLASGVSSRFSGSGSGTDFTLTISSLQPEDFATYYCQGGYYSSSSTYIAFGCGTKVTVLGGGGGSGGGGSGGGGSGGGGSQSQVVESGGGRVQPGGSLRLSCAVSGFDLSSYAVSWVRQAPGKCLEWIGIIYPRANTYYASWAKGRFTISKDNSKNTVYLQMNSLRAEDTATYFCARDRYDSGAYLYTTYFNLWGQGTQVTVSSGGGGSGGGGSAFELTQSPSSLSASVGDRVTITCQASESINSRLAWYQQKPGQPPKLLIYDASDLTSGVPSRFSGSGSGTDFTLTISSLQPEDFATYYCQGYGGSSTTTFGCGTKLTVLGGGSGGSDIQMTQSPSSLSASVGDRVTITCQSSQSVFSNNYLAWFQQKPGQSPKRLIYSASTLASGVPSRFSGSGSGTDFTLTISSLQPEDFATYYCLGSYACSSADCYVFGTGTKVTVLG
chain 2: DVQMTQSPSSLSASVGDRVTITCRASENIYSGLAWYQQKPGKPPKLLIYRASTLASGVSSRFSGSGSGTDFTLTISSLQPEDFATYYCQGGYYSSSSTYIAFGCGTKVTVLGGGGGSGGGGSGGGGSGGGGSQSQVVESGGGRVQPGGSLRLSCAVSGFDLSSYAVSWVRQAPGKCLEWIGIIYPRANTYYASWAKGRFTISKDNSKNTVYLQMNSLRAEDTATYFCARDRYDSGAYLYTTYFNLWGQGTQVTVSSGGGGSGGGGSEVQLVESGGGRVQPGGSLRLSCAASGFSLSSYDMSWVRQAPGKGLAWIGASYASGPTYYASWAKGRFTISRDNSKNTVYLQMNSLRAEDTATYFCARGGWTGTSHSNIWGQGTQVTVSSGGGSGGGSGGGSGEVQLVESGGGRVQPGGSLRLSCAASGFSLSSYAMNWVRQAPGKCLEWIGHINAGDIAYYATWAKGRFTISRDNSKNTVYLQMNSLRAEDTATYFCARGAGGFSTGPFKLWGQGTQVTVSS
notes: heterodimeric MATCH4, modified VH domains, optimized variant of PRO2590; also called MATCH4 with 55-38-D07-sc06(RTQ) / 19-04-A10-sc02(RTQ) diS / 28-21-D09-sc04(RTQ) / 55-38-D07-sc06(RTQ); RPO2670
